Reference: article PMC7993993

Molecular target: T1, His6-PomZ (M. xanthus) (UniProt Q1DEM0)
T1 sequence: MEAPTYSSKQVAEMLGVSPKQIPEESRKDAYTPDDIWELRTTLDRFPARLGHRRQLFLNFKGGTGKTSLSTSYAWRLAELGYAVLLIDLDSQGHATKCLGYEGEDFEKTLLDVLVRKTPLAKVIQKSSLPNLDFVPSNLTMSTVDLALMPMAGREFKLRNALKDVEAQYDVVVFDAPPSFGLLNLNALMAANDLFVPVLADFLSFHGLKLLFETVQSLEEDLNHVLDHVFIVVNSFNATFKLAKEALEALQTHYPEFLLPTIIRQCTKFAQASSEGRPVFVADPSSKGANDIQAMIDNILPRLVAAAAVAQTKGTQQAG

MKKAFEQNVSRAKPRLRLGALT [PomX^NPEP peptide]
His6-PomZ ATPase activity (NADH-coupled assay, 1 mM ATP, 32°C) with DNA, PomX^NPEP peptide up to 15 µM, 4 µM His6-PomZ: 27 ATP hr^−1
